From the domain aggregation screens of Martell et al. (2025) come the findings set out here.
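Further: 20 min heating vs room temperature control held 20 min.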

The series is described as follows: soluble fraction after stress (log2 fold change); higher = more stays soluble; pooled small domains, quantitative proteomics. As to conditions: stress: 75 degC.
As to “HMRDQQHNIYLLEKAKRLYEEFLGDNRHIIAAEMARFEAVLETQDAIIIQRAQQQFSEFLNRFDG”, the “soluble fraction (log2)” value was -2.12.
“HMRDRYEYLKELRLYLSPLGRTEEDRVIEYYAELIGDKIESGIPENGVLSQLGTPRELADKILAETQEY”: the “soluble fraction (log2)” value was -0.377.
On to “HMRDSLVGLEGVVVREVDDETLAGKVQIGSMEWSARSESGRIPAGRRVVVLRAEGVHIVVKEV”, for which the “soluble fraction (log2)” value was -0.407.
Regarding “HMRDSWNEATKEKRYTEAYDALNSALKKTPATPHALSDALWIARELGRTNEEVQRLEWRLYALLTWIS”, the “soluble fraction (log2)” value came to 0.241.
Consider “HMRDTDAEVTYKLNEPFKTMGSVSVEGKVLEFAGSKWFARAAEFASNTEVYPLAKNRVRLTFTFHGLTAP”, for which the “soluble fraction (log2)” value is 0.146.
As to “HMREEFIGVLDGKVAIFHGRPERKGPLKEVTAIEVDKLPRQEQADLEKGLVIRTDKEKLQLMEGLAALLD”, the “soluble fraction (log2)” value turned out to be 0.683.
As to “HMREELIALYRAIARLSEDEQELLNLFYFARRPLSEIAQLTGMTPGAAKTRLYRARRHLRREMEEDGYG”, the “soluble fraction (log2)” value was -1.07.
“HMREGLRHLRVRMPGGAGETLAMLYREGEVLSQSSDGAFIEVEIRVAQSVAGRLLQMPGVQLTEEVG”: the “soluble fraction (log2)” value is -0.941.
With “HMREGNELLGKEGVTVSELRPAGIALIDGRRTDVVTDGEFVAVDQAVEVVEVSGNRVVVRRS”, the “soluble fraction (log2)” value stood at 0.305.
Next, “HMREIDIWVAEDADSQRIDKYLSMVVEDLSRSRIASLIEGGSILVNGEVIRAKYKVKPADHITAAFEDEM”: -1.27.
Next, “HMREIKSNEILLEVENLKNSEFFNDINFNIKKGEIVGFSGLIGAGRTELALTLFGYYKAESGKVIQ”: 0.101; “HMREIRIIAEEGHGRLDAFLAGREELGLSRSRIKGLIEEGQVTLNGAVPKAKQPVSPGDEIVVSVPD”: 0.192.
Next, “HMREKMKGKILDYNFQESRGIISADDGNRYSFENSQWKGTQSPKVNQIVDFEIDGQNAKDIYLDK”: 0.0796; “HMRESLSEAERHPRYLEGEDVVRMFLLMGDLSRVEAEVIALQWNAQEADRVGLPQDAKVFRTRAR”: -0.523; “HMREVDKRYYKINIAGTDRIFTNVYRVGDRYSAYEADKNGKPGKFLYSLSQAEIDRAVISGSFDFK”: -0.225.
Turning to “HMREVSPEDLALMRRIDAWHLEHPFAGARLLRDLLRPEGFQAGRRHIGTLMARMGIEALYRK”, the “soluble fraction (log2)” value was -0.383.
“HMREYVGLSPFNKEKTPSFYVNDEKGQFFDFSSGKNGDLITFLQETERLTFMEAVERLAAEAGLPMPA”: the “soluble fraction (log2)” value was -0.742.
Consider “HMRFANGHLIWDTIIELRNAERRINRRALADLTGLKPGVVDDHVERWIEKDQLRRAGNGELEVV”, for which the “soluble fraction (log2)” value is -1.36.
Take “HMRFMRVSQSKSKNSTSLYIIESVYTKDNKHTTRIVKKLGTVEELSKEHEDPLAWAKEVAKQMTEEAEQN”: the “soluble fraction (log2)” value is -0.569.
Next, “HMRFNIGNVIEHYKLNTEDLAKVLFPTVKYPKQAFDRVLKGEANLDVIQLERLANHIGVLVTDLF”: -1.18.
As for “HMRFQGKISDWNDEKGYGFVEPNGGGTRAFVHIKSFTDLPRRPINGDIIIYETTTDEKNRVQANNISFTR”, the “soluble fraction (log2)” value was -0.194.
Regarding “HMRFSYLNIETRKDISSLINKSEITHSSYNNNEYLYKIKSKKTDDFKDLISLIDEKDLISYSIDS”, the “soluble fraction (log2)” value is -1.14.
On to “HMRFTVSDKMDMLLKSLSAGQSMPFKSLFASASTKSEVIVTFLALLELMKLNQFVVWQDQILGEIEIERR”, for which the “soluble fraction (log2)” value is -0.751.
Take “HMRGDQLREHLLWTAKDVFLELGFERASMDAVAARAETSKRSLYAHFESKEKLFLAVIDLVRG”: the “soluble fraction (log2)” value is -3.54.
Next, “HMRGESFSTLVSILQEMSARKAAQVLNGLSEGLAVEVLRALPSDVAGDILGRMDAAKAAALMEQLST”: -0.46.
“HMRGGLATLTPRERQVLALMAEGRSNAGIAAELVVSGGAVEKHVASIFTKLGLPPDESDNRRVLAVLRHLG”: the “soluble fraction (log2)” value was -1.74.
“HMRGHASVEIKRIVYKYKLTDQELAKITGMKASDFPIYHDHLQLILPKRYWARVLDALQNYEKEHES”: the “soluble fraction (log2)” value was -4.04.
To “HMRGINDLSLVDPQGRIRKDGEQYVVAFGRHKGKEISQIISQDPSYLNWLLSPKGIEDDATRELIRTQYS” belongs -0.206.
To “HMRGPTIELLIQKSALYEELDDSENALKEILKAFDRDSLNSDVLNRLVNLLLNDKQIDRAENYNQLLIEK” belongs -0.17; to “HMRGPVRLDLPVSGLSRSSGPALAKILQAVPGVHKAHVNVRSGKATLEYDPARAKVTDFVEVIRSAGFGT”, -0.272; to “HMRGQGRILAMLKIQPEIATKDLAYLLGIRQQSLNELLKKLEKNSYVERRPSEKDRRVMVVHLTEKGKE”, -0.782.
For “HMRGQLADLWLPREQARRAAEIVAARPVPLGSVKTWIARGKLAPRKTGTGPALYRVGALVSLLAKS”, the “soluble fraction (log2)” value was -2.14.
Take “HMRGVNEISYTTLISEVSGGNVRDVVISGDEITGTFNDGSRFHSFSPDDPQFIERLNDQGVIINVKPL”: the “soluble fraction (log2)” value is 0.168.
Turning to “HMRHDSEGYYRLIGVPPDADDAELKEAAKKRLMEAHPDHGGSEDEFVEVYRAYRTLTDPSARAEYDARP”, the “soluble fraction (log2)” value is 0.28.
With “HMRHEDLSPAQKAAALVVAVGSENAAQVLRHLSEEEVEILAGEVARLGEVDPDVVDSVMREVYEQMMGH”, the “soluble fraction (log2)” value was -0.642.
“HMRHKSNRRLTAAHQIEQQIQKLLMENTMEAKELKESLNFAAKDIDTVLSWLVDKDKVRINAINQYYWT”: the “soluble fraction (log2)” value is -0.434.
Turning to “HMRHRITEKDKQFRIGQQVWHSEYGKGMVLSVDGIGSSARLTVSFVSGKLAKIIGTFVSTEP”, the “soluble fraction (log2)” value was -3.47.
To “HMRIETLESLANRLAYKAYRTGRKVELEPMNPFERRVIHTALQNSKYATTESEGEDMNRHIVIVPKEGG” belongs -0.152; to “HMRILGIDPGSVVTGYGVIDKSGNYLRHVLHGEIKPHKGYLLSEVLMDIFSKLSAVIVETNPQSV”, 0.271.
On to “HMRINIVKSKNAEQLYIIHSYRINGKNTSKIYKKLGTMADLLPLHNHDRDQVLAWAKEQARLATEQYDQEN”, for which the “soluble fraction (log2)” value is -2.79.
To “HMRIQLNFSDQLLDDVMSEALKHIDRKSQEHHIEKQMDDEFMLVYIDARLIIQVIVNIINNAIKY” belongs 0.168; to “HMRITEGEIVEIQEGDNRALVGVGEKLEGIISLDEIRGADGKLLFNVGDKITVMVMGHYNERPK”, 0.244.
Next, “HMRITRREQQVLHLLAMGMTTREIAGHINLTERTVRNRISNLRDKLGAQTASQLLAKAVAQGLIEP”: -2.69.
For “HMRIVSGRESMLGRTVVVADWAGERGHVVVDGERWNAVASTPLAAGRRARIVGIDGLTLSVSPDDKP”, the “soluble fraction (log2)” value is 0.0293.
Take “HMRKAERHLLIKQVIDEFTIRTQEELLAKLSDYGVNATQATISRDIRDLKIVKAPDENGISRFVFF”: the “soluble fraction (log2)” value is -1.73.
With “HMRKGDDRLRAQVDEYISKQGNNTFNYKQVAHAINATSPISQRAVALYLAELAFDGDLLETAPGRYKSPSR”, the “soluble fraction (log2)” value was -0.0636.
Next, “HMRKIKDVLRLKLHAGLSHERVAASLNISKGVVAKYTSLAAAAGLDWPTVERLSEAALERRLV”: -0.181; “HMRKIKEVLRLKFETGFSHERIAAAVGVSKGAVTKYVQRAVAAGLGWPLAPERDDAALEALLFPH”: 0.842.
Next, “HMRKLDQRLAGLLLGKGRLVKATHQQLADELGSVREMVSRLLKGFAEHDLVRMSREQIEIVDAAGLRKLAD”: -2; “HMRKPDLTSVRTLIRSVSKLARHLKISPNGIYRWISVNRIPGAHVVKVANYYDVEIRDLVHLTGSD”: -1.49.
As for “HMRLADHVVEKLLALVQDRGLQPGQKLPAERQLAEELGVSRTSVREAIQKLTSQGVLSARRGDGTYLQS”, the “soluble fraction (log2)” value was 0.0739.
For the sequence “HMRLARPLTPTEERVLRLLASDMSNAKIGEVLGIRLPTVKSHVSHIMQKLGVTSRAKARTAAQQLGI”, the “soluble fraction (log2)” value was -1.21.
In the case of “HMRLDPENFYIRAVTYYRNGDWQRALSQLDEAIKLGTAIEYPALQARIYLEQGMRDEFIAASEK”, the “soluble fraction (log2)” value is -1.86.
To “HMRLDVALRGVLLDGDPTQSRAFVLVSGTTSTYRLGETVQSAELVAINADTITLRTETGLHVIGFDGLI” belongs -2.77; to “HMRLEYLVDVEEISIKEYLMLLGLSRRLARKIKLYGKMYINHQEAFNYHLVKKGDLLTIEFDE”, -2.85.
As to “HMRLIDVFELSPKNRTVLQLYYYEGYSVTEISKILKISVNGVTSRLSRARSKLKLEMEAAENE”, the “soluble fraction (log2)” value is -0.577.
Regarding “HMRLMLITPTEFDEAAEIADNLKDRRAVLMNVEKTDNETARRLIDFLSGVVYALGGKIMRISAQAYVLT”, the “soluble fraction (log2)” value turned out to be 0.00546.
With “HMRLPNGYGGVTKLSGRRRKPYMVRKTIGWHIDEKTDKKVQDYVVIGYAATKSEALQMLADYNNNPFDV”, the “soluble fraction (log2)” value was -2.93.
In the case of “HMRLSVVDLQDSLRGLEYPAGKGDLINHAREHNASADVIAVLEQFSERTYRSAADVGEEFGRV”, the “soluble fraction (log2)” value is 0.152.
For the sequence “HMRLTIAQLSEKTGVPERTIRYYIDRGLVPSAHGERRGAWYDTVHLEPLLRIQQWREAGLSLEAIADLLR”, the “soluble fraction (log2)” value is -1.72.
As for “HMRMLLEERLDEIVKIVNERGSISNQELVKMFGASESTIRRDITTLANDNRVIRVHGGAMSVVS”, the “soluble fraction (log2)” value is -0.333.
With “HMRMTLKNKVEDIVHILRKDKQTSLSAILGDNTDRIQTIVVFLAILELVKQHLIKTDQNANFGDINLFPED”, the “soluble fraction (log2)” value is -0.000181.
“HMRNLFWTEAQNAQNELNAMRINALTQSIRRIEPNFRGIPSLRDPNRPIPNEEVRDYENYLNRILP”: the “soluble fraction (log2)” value is 0.0375.
Turning to “HMRNMRKLWIARINAAARMNDISYSKLMHGLKLANVEINRKMLSEMAIDDPKSFTALVETAKKALNG”, the “soluble fraction (log2)” value was -1.49.
For the sequence “HMRNPLYAQVADYVMQQIAAGTYRPHQAIPTEWQLAKKLEVSQGTVRKGLDELVFKQILYRQQGVGTFVAD”, the “soluble fraction (log2)” value was -1.31.
On to “HMRPAAELGLPHAPKHFIQYLTEDDRPQVLKDVDYEGGMGVSIGRLREDSIFDWKFVGLAHNTL”, for which the “soluble fraction (log2)” value came to 0.0714.
Next, “HMRPADTAAMLKYLSSGAVKGIGGALAGRIIEAFGDESIKVIEEDPARLATVKGITLKKAKEISEEMQRVN”: -0.0169; “HMRPEFVVALSGADLGKLHRLYELGEVLSREDDAEGVTHAVLRVPDKHEHAFHAEFPQARPM”: 0.879; “HMRPIDEVFGFFSRPENLTVITPSNLHFNILTPRPLEMKQGAVIDYTIKIFKVPIHWRTLITTYDPPFKFV”: 0.059.
For the sequence “HMRPILTLEEAKAKALAHAGLKADQVTFTEAKLDWDDGKQVYDIEFYTADFKEYDYEIDAKTGEVLEVDY”, the “soluble fraction (log2)” value is -0.466.
